{"source": "paper PMC6158681", "target": "SpyCatcher-mi3 (Streptococcus pyogenes | Thermotoga maritima)", "data": [{"substance": "SpyTag-MBP", "values": [{"measurement": "% conjugation", "result": 91, "unit": "%"}]}]}
